Assay: protease stability score; higher = more stable; yeast display proteolysis, trypsin and chymotrypsin;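 note: relative to predicted unfolded state with 0 unfolded-like and 1 meaning tenfold more protease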

“NEWKEKFERFTRLLLTALMTGNEELLTKMVDPHVKVDIIINGQHIEHHGMERVIEMLTQLRVDRWRIKHIDIQGDKLHVNIHLDIKYDGRREETRTEIRLIIYDGVVHEIEIHLH” gave a protease stability score of 1.99.

“NEWQEILLRISEKILKDLFTGNEEVWEKLVDPDAQVHINGKEVHGREEALHFLKELKDELRVEHLFIRDVKLQGDKVSLTSESRGNVNGVRRDMKVEIIVIVINGRVKHEKFIII” gave a protease stability score of 1.37.

“NHDEEHLKRLLEDEREMLETGNEDEIRRLLDPHVRLDIDGRNIHGREEVAKWMVKLALRVDVFIIRVKRFHIQGDYIYFDTHIEEIVNGQHISFDVMIIIWKYNGRWLIHSIIVR” gave a protease stability score of 1.58.

“NHDEEKTHEFKEKWMKDVTTGNEEEISKLMDPNAKIVVNGREYHGREKMWETIHRLLKILGISRVEVRIESVHIYDGRIEIHMRVHAENHESHIIVHVEKIDGRWSSKHLRID” showed a protease stability score of 0.968.

Work on “NHEEEERHETFRIFLESVRTGDWKNTEKLLDPNARQVWNGKVLHGRESVIEVMRELRVDSLDVKSFDIQGEKAIMHGESEGVFNGKRLNMTLETHLVKVDGKWFLRELVII” yielded a protease stability score of 1.23.

“NHEEEHAKTLFEEWLRVLLTGDWKMFSHLADPHTRIHIGNKDIHGRDLFVELVIRELEEIRVILIVEELSAQGDKSRMRTRLIIRQGEFEHRTELRLEIVFVDGKFTSIHLRHK” showed a protease stability score of 0.599.

Sequence “NHLEEVKDLAIELSWKLMHTGNEELSDRNADPNTRLEFNGVEFVGREWFRQFISEMGVKHIRIDDIDMFDGRMRLDGTFNFNGQEIKVTVFTRKVDGRWRIKSLKFD” has a protease stability score of 1.6.

In the case of “NHQQIAFHFLWDIVEYLLMTGDEHILEKYADPTVKTLVDGRELHGREDVIRFFHEMFKRIDHIQDVKLHDYRFQGNKVEIDSRIIGTIDGQRDVITVTWRVLKVDGRWLIHTVELH”, the protease stability score is reported as 1.69.

Sequence “NKHERDAEHFIKEWWHDVHTGDEDHYLKRLDPNMRVDINGQEFHGREKVLTFFHEHSRHLGIDHLIIDHVRIRVQGNKIEEEVEGENVFNGKRLEVRFHFVARKIDGRWELEHLTVRIS” has a protease stability score of 0.724.

Work on “NKMDEYAYKMLELWLEAFLTGDFEFIEKNLDPHVRSRINGVELIGRHLYLEMVRREMEEIRVKDVHPRRVEIIDGVVHFHGEWNGQVNGRETHKEHEVEIIVVNGRLKSVIFRIR” yielded a protease stability score of 1.27.

“NKMMEEIHHWLRLLIENEITGDEEKSLHLADPEARIDFDGVEIHGWERFLKFVEEKLKLLGARVEDIKIHDYRIIDGRLHIDSRVHIEINGVRQTREREIVSRKVNGRWLVNSLHFR” showed a protease stability score of 0.607.

Sequence “NMDEKLKRWAIEDHIKSDETGDENMKEHYMDPNVRIDIGDYELHGREAAIRDIRRIRHEMGVKVMHVEIEHVDVQGEKIRIHSRLIFEINGKEVRHETNIIYSKFDGRWVLKHESIK” has a protease stability score of 0.102.

For “NREDRELEDFIWEILEAWRTGDEDEHHRLLDPHTRHHFNGRVSHGREMVEYIFKQFDHIHRFEYRDFSVQGNKAHVFAQVDVRIGDKIITFDVTIEVEKVNGRWVLRELSIH”, the protease stability score was 1.31.

“QDIDHQLERAVKEILETFITGDESLASHLFDPDVRVIQGDKHIHGREEVTKVFYEFVKRADHVEIRMREVESQGDIIDIETELILRIGDKEVRHRVRLIVVKYNGKWHIKSMEVD” showed a protease stability score of 2.72.

Sequence “QEDEDFVRWALHVFMRYVLTGDEESLERLLDPDVRITVGNKHLHGMENATNELRHMSKQVDHIHDLRFHDVRSINGRIHETGIDDGIINGRRIHRESILVIEKVNGRWHFHSIRVL” has a protease stability score of 0.836.

For “QEDEKLADEVVERIAHDIHTGDEDSLRHLMDPHVRLQVGDKRYIGRESVLEFLRQLRIEVEDVKIHDIHVVNGQMHSDTRIHGRIFVNGRDIETTLRSKHILLKYDGKWLWHSWHIH”, the protease stability score was 1.31.

For “QEDRERAERIINELMENELTGDEDRLRELADPRVRVEYDGQEHIGMELRSTWIKEMRFDHIHVDIDEFEFQGNKIHIKARFHIDVNINGRKRRYTVETFLVMKKINGVWFIKDIVFH”, the protease stability score was 1.36.

Sequence “QEEEEFVRKFVHEVIRALMTGDEHRMHELLDPHVISSRHIGDKHVHYHGREEVLRHLHEWLTHLRIKSLEIRSHKAFDGRMIVHGTLFGQQGDKDVEFEVIIDLEVINGRIKHFHVELR” has a protease stability score of 1.32.

“QEELDIAREMIKMWTHHLETGDEEVTKHLADPTTRFIIDGVTYHGMHNTVRLWLEIRSHSRIRIRFVEVQGNKVNSDVELEYDLIVGEKTDTIIRRSHLYLHKVDGRWRIKEIEFR” showed a protease stability score of 1.12.

“QEYDEHIEELWRDFVHAMITGDEDRLSELMDPDTRILVGDKHLVGWDRALRFLHEHIREIRPTDFKLRDIRFFDGRIHVDTEMRLVVNGQEVHKKTHLIVYKYDGRWHIEAIIEH” showed a protease stability score of 2.24.

Work on “RDEDEVVDHIARLIVEAWRTGDEDWLKKMADPNVKQHIHIDGKTEINHGREEMIHQLERLHRKLGVDHHHLKSSTVIGDKIKIHMEERIGDFSIFVHVEFIVINGRMKEIRISIERE” yielded a protease stability score of 0.931.

Sequence “RDEDHELKEMRRMIHEIIMTGDEDKWKKMADPHVQLHIGDKHHHGRDHVSRILTELRVHHFDVEHIHHEFINGRATLRIEGTLHGIINGVEKKVETEIRIIIIKFNGVWYIESQEFHVI” has a protease stability score of 0.492.

With “RDEDRDRHHAWREFERIMLTGDWRESEKLIDPHVRLDIDGRRHHGMEIYSTLLYHISTRADHIRVILDDIKVQGEKVEVDTIIDIHVGDKHIHIKTHIVASKINGRWFLHSLKID” the protease stability score was 0.929.

Sequence “RDEEEEARRMMEIFLEDVRTGDEDSLKELADPNVKSEINGVELVGREEVLKTLREILRELGVSNVEVRLHRIHVYDGRAHIDGRLNVNGRELEMHVDMEKVDGRWRIRRIELR” has a protease stability score of 2.27.

“RDEEEYAHRVLELWRFILETGDEDTLYELADPNVRFKFLQGNKEIHRHGRERMVEEIRTRREELGVKHIHLEHVEVWNGVVHLRVVVHFNGKELRSRIIIVVIDGVIKEIEIREE” showed a protease stability score of 1.04.

“RDEESHLKHLAERIMKSWETGDEHTLRHLFDPNTRSHVEVGDKRWSFIGMENFDRWFRELHEEMGANHTTVHDTKIQGNKLTMDTRLLVGDKEIRTRLIFHIVDGRITHIIIKLE” showed a protease stability score of 1.31.

For “RDIEEINKRALESWKHALETGDEDTMEELLDPHVRVEDEHEMHHGRSAFHLWIKRVDHFRSLHIRETRIVGDKVDNNVEVDGTINGQDRLIEIRLVLVKFNGKWKFRSIHFK”, the protease stability score was 1.38.

Work on “RDIRELTLMMTKLIRKTDKTGDPRIAHELADPHYRFDFDGVEYHGREIVQHWMEKYPNVRFKVRHVDIVGDKARIEGTDNVDGQEIDTEYRVSKVDGRWHLEEIIFR” yielded a protease stability score of 0.487.

Work on “RDKERMVHFIANYVLHSVLTGDWKMLFDLLDPSMRLEIGEKDSHGRENAEKLLHEFLEKLGADHTDIRRSHVTFQGDKIIIIINTEIDINGVRHEIWVRVIILKIDGKWVLESIRIEIR” yielded a protease stability score of 1.54.

Work on “RDLDEIARHVIELWKETYETGDERHLRELLDPNMRVEVNGVESHGREEMMKHMVKYAREIRITEIIDRDTDSQGNKLHIHGEIIVEQGDKKHRYTLDVTFFVVDGRIKHLHFRSK” yielded a protease stability score of 1.2.

“RDMEHIMKELIHFVLHAVMTGDEEKMRQYADPHVKLNYNGVEVVGMEEILKIWRHIRIEIEDHTVEHISVVDGKLRSDTRVDVHIEFNGRHIRENLHTHVIIYKVDGRWVFKEVRIK” gave a protease stability score of 1.84.

“RDSEEKDKIFLSIVESAILTGDPETSEKMADPNVRIDFNGKDLVGREDYHRFVKRWLEEARFHKLVIHELRHVDGRMDSHTQEIVDIDGRRYTHDTHIIMLKIDGRWILHSKTVR” gave a protease stability score of 0.986.

In the case of “RDTEETVENASKRWVRTMETGDEDVLHRLLDPHVRVEAENHEIHGREIVSTHIREILEKLGMTIHIHLKDVRVQGNKAEIDMHIEYIIDGRITSHDYTLINRKINGRWLVERVIIN”, the protease stability score is reported as 0.31.

Work on “RDVEHLLEKWMEDHMEALHTGDEDRIHELLDPHVRVHIDGVNLHGRERAVEFMVRSLRELGIKHIKLDVEDVEVQGEKVIIDLRVNLDYDGREHRDKEIIILLKIDGKWVIEEVRRG” yielded a protease stability score of 1.07.

Sequence “REDDEMSEEANRLLHELVRTGDFEQLIKNMDPNTRLRQGDKHFHGREEYEKHWRELLERAGLERVELHIDDIRVFNGVAHINGTLRIGDKVMEVRLILTKFNGKWIFTSMEIH” has a protease stability score of 1.26.

With “REDDERIDEMVELIFHWEQTGDEEKVYNNMDPHVRIDYNGRELHGWKKFTEELRLIYEEMRLKHIHISHQTIQGEKAIVHVELEGQVGDKRYIHRREIIVLKIDGKWIIKMVRFV” the protease stability score was 1.49.

In the case of “REDEDAVREWALKFLESSLTGDEHFLKNLMDPHARLVIGDKHFHGREEVVRTWREFLTKFKNVRHDLHDINIQGDKVDVVENLVFDGVRTRTRITMRKVDGRWVITDIVIE”, the protease stability score is reported as 2.08.

Sequence “REDEEFAIHMFLNLIRWLMTGDEEQLEELADPDTKYHQGDKTLHGREEFLKWFHLMHKWLGIKHIEMRITDLRAVDGRVESEVSVDEHYDGRTKRYRTIIIVNVVNGKLKSEERHID” has a protease stability score of 1.22.

Work on “REDEEHTKELLDAWQEAVETGDEDFILELFDPHVRSQVGDKERHGRHSFLELLRRLLEELGFDHVQFHITHREIQGDKITVETRLIFEYGDKRLEVQVEVEVKKINGRWYIHSVRWK” yielded a protease stability score of 1.87.

With “REDEEITHKLLELLLTVIRTGDEQEMLNLLDPNTRHDVNGKHLHGRETAHRLFHEWSRHMRIHDLEIHDEKKIGNKVHIDGRLDGHIDGKREKIEVEFVIVKIDGRWVINSMTIK” the protease stability score was 0.931.

“REDEELVKQVVKDFDHAVETGDEDRLRELLDPDVRISQGDKEFHGREDYELHLRQWRYENHRVHDVRIYGDKARIHGHLHLKIGDKHLEVETILILHKVNGRWRVRHLEIR” showed a protease stability score of 1.83.

With “REDEEMAEKISEFIFHVLETGDEKSNHENIDPNARTHIGDKHSHGRENVTRMMDWWMHFLGVKHIEKKDLEIQGNFAFLHSISVVGDKTFEIDVTALKVNGQWVFKKFQVN” the protease stability score was 1.64.

With “REDEEMIEHAVRREIHSYYTGDWEKHYKLLDPNALIHIDINGRQENIHGREEIMRFWYERFKDFGFDHMEIKRITLVDGKLHIFSIIDVNGVRIELEIIIVKVDGRWRLHTMRYHYH” the protease stability score was 0.652.

For “REDEEQMSRFIKEMIHLLRTGDEDRLHELIDPHTRLDFDGKEIHGREEWSQFLKEIRFRRFEVKDFEIVNGVANVDGKMHGEFDGQRFTTRVHIYNVKINGRWVHKWEEIG”, the protease stability score was 1.32.

“REDEEWLERLLRIIEKAMRTGDEQLTKELFDPNVRLEVGDKIIIGWEELTKIMHEMRVRDSRIHRVRTVGDKVEADTTVNGEIDGREFETEVRIEMLKVDGQWVVDKVHFK” gave a protease stability score of 1.89.

In the case of “REDEKFRDYATHWLEKYVRTGDENLMEELIDPDVRVHVNGQENHGMDEMRKWMLELRIEHIIIRRIEIHVYDGVIEINIDSETRVNFNGRKIRTKVHIHTETRKIDGRWSISHLELRFK”, the protease stability score is reported as 1.07.

With “REDEKLFEEVLRELVKWLTTGDEKQMRDLFDPNARREVNGVEVHGWEEFLRHVREDRKRYDHVKDIEIHHIDIQGDKLEINVTLVGHIDGKEDVIIFTILLRKVNGKWIVKEIQFH” the protease stability score was 1.52.

With “REDEQDLRKFVEDLIHSLKTGDEDSTSRLLDPHVRVEIGDKEFVGREDFTRLMVETVRRYDHIRFDLRRVEDIDGKAHIHGHIYIRVNGVWHHKEVEIIIDKINGKWVIRELRVK” the protease stability score was 2.33.

For “REDEQLFHEMLRRVIHALLTGDEQILADLLDPRMRIMYDGVSRHGWHDFIEVLRDLGFDHLILKDYRIQGDYVRFHFIIEQGDKHHTVEIHVQIWDGKVEQIVVNYR”, the protease stability score was 2.04.

For “REDEREAEEFLRKLLHDIRTGDEESISRMIDPHVRVIYNGVEVIGRERALEVFKKFLEEIRIDTYHVHKVDMINGKMHADTRLRWEINGQRDTSTMLIVVEKVNGRWFLHSVVIS”, the protease stability score was 1.97.

Reference: the NTF2 design screens of Basanta et al. (2020)
